# Laboratory results from the Human Domainome abundance scans (Beltran et al. 2025).
# ± gives the uncertainty stated by the source.
# B1: E3 ubiquitin-protein ligase Midline-1, residues 172 to 214; numbered along this chain, O15344 (parent)
# chain: GLMCLEHEDEKVNMYCVTDDQLICALCKLVGRHRDHQVAALSE
# Variants of: B1
# Assay: abundance fitness (aPCA) (normalised: wild type 0, dead -1); higher = more abundant; growth selection in yeast, the domain comes from the species named
# Settings: Homo sapiens
row,Variant,abundance fitness
1,GLMCLEHEDEKVNMYCVTDDQLICALCKGVGRHRDHQVAALSE,0.213 ± 0.045
2,GLMCLEHEDEKVNMYCVTDDQLICALCKCVGRHRDHQVAALSE,0.025 ± 0.081
3,GLMCLEHEDEKVNMYCVTDDQLICALCKFVGRHRDHQVAALSE,-0.262 ± 0.14
4,GLMCLEHEDEKVNMYCVTDDQLICALCKMVGRHRDHQVAALSE,0.086 ± 0.084
5,GLMCLEHEDEKVNMYCVTDDQLICALCKEVGRHRDHQVAALSE,0.211 ± 0.06
6,GLMCLEHEDEKVNMYCVTDDQLICALCKAVGRHRDHQVAALSE,0.135 ± 0.053
7,GLMCLEHEDEKVNMYCVTDDQLICALCKIVGRHRDHQVAALSE,-0.205 ± 0.12
8,GLMCLEHEDEKVNMYCVTDDQLICALCKDVGRHRDHQVAALSE,0.241 ± 0.079
9,GLMCLEHEDEKVNMYCVTDDQLICALCKKVGRHRDHQVAALSE,0.182 ± 0.073
10,GLMCLEHEDEKVNMYCVTDDQLICALCKNVGRHRDHQVAALSE,0.072 ± 0.093
11,GLMCLEHEDEKVNMYCVTDDQLICALCKHVGRHRDHQVAALSE,0.19 ± 0.061
12,GLMCLEHEDEKVNMYCVTDDQLICASCKLVGRHRDHQVAALSE,0.165 ± 0.062
13,GLMCLEHEDEKVNMYCVTDDQLICAECKLVGRHRDHQVAALSE,0.101 ± 0.054
14,GLMCLEHEDEKVNMYCVTDDQLICARCKLVGRHRDHQVAALSE,0.272 ± 0.053
15,GLMCLEHEDEKVNMYCVTDDQLICAKCKLVGRHRDHQVAALSE,0.193 ± 0.084
16,GLMCLEHEDEKVNMYCVTDDQLICACCKLVGRHRDHQVAALSE,0.138 ± 0.066
17,GLMCLEHEDEKVNMYCVTDDQLICAHCKLVGRHRDHQVAALSE,0.353 ± 0.17
18,GLMCLEHEDEKVNMYCVTDDQLICAVCKLVGRHRDHQVAALSE,0.027 ± 0.052
19,GLMCLEHEDEKVNMYCVTDDQLICADCKLVGRHRDHQVAALSE,0.089 ± 0.075
20,GLMCLEHEDEKVNMYCVTDDQLICAICKLVGRHRDHQVAALSE,-0.525 ± 0.21

row,Variant,abundance fitness
1,GLMCLEHEDEKVNMYCVTDDQLICATCKLVGRHRDHQVAALSE,0.189 ± 0.078
2,GLMCLEHEDEKVNMYCVTDDQLICAPCKLVGRHRDHQVAALSE,0.295 ± 0.1
3,GLMCLEHEDEKVNMYCVTDDQLICAACKLVGRHRDHQVAALSE,0.083 ± 0.058
4,GLMCLEHEDEKVNMYCVTDDQLICAQCKLVGRHRDHQVAALSE,0.387 ± 0.077
5,GLMCLEHEDEKVNMYCVTDDQLICANCKLVGRHRDHQVAALSE,0.193 ± 0.2
6,GLMCLEHEDEKVNMYCVTDDQLICAYCKLVGRHRDHQVAALSE,-0.041 ± 0.11
7,GLMCLEHEDEKVNMYCVTDDQLICAMCKLVGRHRDHQVAALSE,0.031 ± 0.078
8,GLMCLEHEDEKVNMYCVTDDQLICTLCKLVGRHRDHQVAALSE,-0.16 ± 0.13
9,GLMCLEHEDEKVNMYCVTDDQLICCLCKLVGRHRDHQVAALSE,-0.097 ± 0.082
10,GLMCLEHEDEKVNMYCVTDDQLICFLCKLVGRHRDHQVAALSE,-0.233 ± 0.12
11,GLMCLEHEDEKVNMYCVTDDQLICRLCKLVGRHRDHQVAALSE,0.099 ± 0.052
12,GLMCLEHEDEKVNMYCVTDDQLICMLCKLVGRHRDHQVAALSE,-0.23 ± 0.1
13,GLMCLEHEDEKVNMYCVTDDQLICQLCKLVGRHRDHQVAALSE,0.087 ± 0.067
14,GLMCLEHEDEKVNMYCVTDDQLICPLCKLVGRHRDHQVAALSE,-0.124 ± 0.11
15,GLMCLEHEDEKVNMYCVTDDQLICKLCKLVGRHRDHQVAALSE,-0.02 ± 0.062
16,GLMCLEHEDEKVNMYCVTDDQLICLLCKLVGRHRDHQVAALSE,-0.28 ± 0.064
17,GLMCLEHEDEKVNMYCVTDDQLICWLCKLVGRHRDHQVAALSE,-0.181 ± 0.1
18,GLMCLEHEDEKVNMYCVTDDQLICHLCKLVGRHRDHQVAALSE,0.188 ± 0.093
19,GLMCLEHEDEKVNMYCVTDDQLICELCKLVGRHRDHQVAALSE,-0.018 ± 0.055
20,GLMCLEHEDEKVNMYCVTDDQLICDLCKLVGRHRDHQVAALSE,-0.073 ± 0.094

row,Variant,abundance fitness
1,GLMCLEHEDEKVNMYCVTDDQLICGLCKLVGRHRDHQVAALSE,0.105 ± 0.046
2,GLMCLEHEDEKVNMYCVTDDQLICVLCKLVGRHRDHQVAALSE,-0.303 ± 0.095
3,GLMCLEHEDEKVNMYCVTDDQLICILCKLVGRHRDHQVAALSE,-0.266 ± 0.11
4,GLMCLEHEDEKVNMYCVTDDQLICALTKLVGRHRDHQVAALSE,-0.571 ± 0.14
5,GLMCLEHEDEKVNMYCVTDDQLICALSKLVGRHRDHQVAALSE,-0.807 ± 0.11
6,GLMCLEHEDEKVNMYCVTDDQLICALNKLVGRHRDHQVAALSE,-0.478 ± 0.45
7,GLMCLEHEDEKVNMYCVTDDQLICALMKLVGRHRDHQVAALSE,-1.02 ± 0.2
8,GLMCLEHEDEKVNMYCVTDDQLICALHKLVGRHRDHQVAALSE,-0.481 ± 0.31
9,GLMCLEHEDEKVNMYCVTDDQLICALEKLVGRHRDHQVAALSE,-0.741 ± 0.13
10,GLMCLEHEDEKVNMYCVTDDQLICALKKLVGRHRDHQVAALSE,-0.429 ± 0.43
11,GLMCLEHEDEKVNMYCVTDDQLICALQKLVGRHRDHQVAALSE,-0.913 ± 0.2
12,GLMCLEHEDEKVNMYCVTDDQLICALLKLVGRHRDHQVAALSE,-0.883 ± 0.12
13,GLMCLEHEDEKVNMYCVTDDQLICALVKLVGRHRDHQVAALSE,-1 ± 0.099
14,GLMCLEHEDEKVNMYCVTDDQLICALYKLVGRHRDHQVAALSE,-0.448 ± 0.35
15,GLMCLEHEDEKVNMYCVTDDQLICALAKLVGRHRDHQVAALSE,-0.757 ± 0.081
16,GLMCLEHEDEKVNMYCVTDDQLICALGKLVGRHRDHQVAALSE,-0.696 ± 0.074
17,GLMCLEHEDEKVNMYCVTDDQLICALWKLVGRHRDHQVAALSE,-1.01 ± 0.11
18,GLMCLEHEDEKVNMYCVTDDQLICALDKLVGRHRDHQVAALSE,-0.328 ± 0.11
19,GLMCLEHEDEKVNMYCVTDDQLICALPKLVGRHRDHQVAALSE,-0.166 ± 0.17
